According to paper PMC3376891 (Cell, 2012):

Columns and labels:
[1] = Far-UV CD spectroscopy of peptides; assay type: physicochemical; conditions: aqueous solution / buffer (Figure S2D)
[2] = salt-free buffer; ref Bowie and Sauer, 1989; cited from earlier work

Substance | Secondary structure by far-UV CD [1] | Unfolding behavior of Arc upon dilution [2]
neuropeptide Y [Pep1] | α helix | –
Arc: 55 aa Arc repressor, a client protein of both chaperones (MKGMSKMPQFNLRWPREVLDLVRKVAEENGRSVNSEIYQRVMESFKKEGRIGA; UniProt P03050 1-53, looked up) | – | rapidly dissociate and slowly unfold upon dilution into salt-free buffer without forming aggregates
